The values below come from the nanobody polyreactivity screen of Harvey et al. (2022).

This series in a line: yeast display, Sf9 membrane polyspecificity reagent, FACS + sequencing; frameworks hold sequencing errors. The gist of the method:
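Genes from sorted yeast were amplified by colony PCR, read by MiSeq 2 × 250 sequencing and filtered on CDR length. These cells carried a synthetic nanobody library in Saccharomyces cerevisiae BJ5465 and were sorted by FACS into low and high (top ~1%) gates on anti-HA and streptavidin fluorescence. Polyreactivity is labelled according to the gate of origin.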
For “QVQLVESVGGLVQAGGILRLSCGASGRTFTGYTMRWYRQEPGKERELVATISRRGRSTYYADSVKGRFTISRDNAKNTVYLQMNSLKPEDTAVYYCAAEKPRAVYFEYDYWGLGTQVTVSS”, the “polyreactivity (PSR sort gate)” value was “high polyreactivity”.

Take “QVQLVESVGGLVQAGGRLRLSCAASGSTFRYYAMGRYRPATGKESELVAAISRSGGSTYYADSVKGRFTISRDNAKNTVYLQMNSLKTEDTAVYYSNGRYYTFYSIYDYWGQGTQVTVSS”: the “polyreactivity (PSR sort gate)” value is recorded as “high polyreactivity”. To “QVQLVESVGGLVQAGGSLLLSCAASGFTFGPYAMGWYRQAPGKERELVAAISRSGGSTYYSDSVKGRFTISRYNAKNTVYLQLNSLKPEDTAVYYCAACSAYLWGQGTQVTVSS” belongs “low polyreactivity”; to “QVQLVESVGGLVQAGGSLRLICAASGSIFGVYAMGWYRQAPGKERELVAVIRWRGGSTYYADSVKGRFTISRDYAKNTVFLQMNILKPEDTAVYYCAARLHIVVATYDRRYDYWGQGTQVTVSS”, “low polyreactivity”; to “QVQLVESVGGLVQAGGSLRLICAASGSIFVPNTMGWYRQAPGKERELVAAINISGGNTYYADSVKGRFTISRDNAKNTVYLQMNSLKPEDTAVYYCAAVWFKVWSFAGDWGQGTQVTVSS”, “low polyreactivity”. To “QVQLVESVGGLVQAGGSLRLICAASGSTFPSYAMGWYRQAPGKEREVVAAINSGGGTNYADSVKGRFTISRDNAKYTVYLQMNSLKPEDTAVYYCAKSRYDYTKTEGGYWGQGTQVTVSS” belongs “low polyreactivity”; to “QVQLVESVGGLVQAGGSLRLSCAASAFNFDYNAMGWYRQAPGKERELVAVISSSGSRTYYADSVKGRFTISRDNAKNTVYLQMNSLKPEDTAVYYCAAARIGTLDYWGQGTQVTVSS”, “high polyreactivity”. Regarding “QVQLVESVGGLVQAGGSLRLSCAASGFIFGYNAMGWYRQAPGKERELVAAIDSGDSTYYADSVKGRFTISRDNAKNTVYLQMNSLKPEDTAVYFCATDVTFVYDFGYFQYDYWGQGTQVTVSS”, the “polyreactivity (PSR sort gate)” value is on record as “low polyreactivity”. To “QVQLVESVGGLVQAGGSLRLSCAASGFIFWDYAMGWYRQAPGKERELVAAISDSGGDTYYADSVKGRFTISRDIAKNTVYLQMNSLKPEDTAVYYCAADVELWVFRGQQYDYWGQGTQVTVSS” belongs “low polyreactivity”; to “QVQLVESVGGLVQAGGSLRLSCAASGFTFHGYAMGWYRQAAGKERELVAAIRSGDRTYYADSVKGRFTISRDNAKNTVYLQMNSLKPEDTAVYYCDAGSYFRDSYARIYRWFYYWGQGTQVTVSS”, “low polyreactivity”. For the sequence “QVQLVESVGGLVQAGGSLRLSCAASGFTFSSYSMGWYRQAPGKERELVAAITISGGRTYYADSVKGRFTISRDNAKNTVYLQMNSLKPEDTAVYYCAARYVEGQNHYGYRGQGTQVTVSS”, the “polyreactivity (PSR sort gate)” value is given as “high polyreactivity”. To “QVQLVESVGGLVQAGGSLRLSCAASGFTFVDNAMGWYRQAPGKERELVAAISWTGVGSTYYADSVKGRFTISRDNAKNTVYLQMNSLKPEETAVYYCAADGLSRGVPDEFDYWGQGTQVTVSS” belongs “low polyreactivity”. To “QVQLVESVGGLVQAGGSLRLSCAASGGKFISYAMGRYRQAPRKERELVAAITSSGGSTYDADSVKGRFTISRDDAKNTVYLQMNSLKPEDTGVYYCAADHSTVLDVGSWGQGTQVTVSS” belongs “low polyreactivity”. To “QVQLVESVGGLVQAGGSLRLSCAASGGMGWYRQAPGKERELVATISSVGSTNYADSVKGRFTISRDNAKNTVYLQMNSLKPEDTAVYYCNATGVQYFLYGYWGQGTQVTVSS” belongs “low polyreactivity”. For “QVQLVESVGGLVQAGGSLRLSCAASGGTFQHYTMGWYRQAPGKERELVAAISLSGTRTYYADSVKGRFTISRDNAKNTVYLQMNSLKPEDTAVYYCAARYGVEYWGQGTQVTVSS”, the “polyreactivity (PSR sort gate)” value is “low polyreactivity”. To “QVQLVESVGGLVQAGGSLRLSCAASGITFRWNAMGRYRQATGKERELVAAIRRSGRTYYADSVKGRFTISRDNAKNTVYLQMNSLKPEDTAVYYCAAVSGYRSSKYDYWGQGTQVTVSS” belongs “high polyreactivity”.
